Reference: article PMC9599826, “Selecting Multitarget Peptides for Alzheimer’s Disease” (Biomolecules, 2022)

Molecular target: Recombinant human TLR4/myeloid differentiation factor 2 (MD-2) complex (human) (UniProt O00206)
Sequence (O00206 24-631, chain 1 of 2): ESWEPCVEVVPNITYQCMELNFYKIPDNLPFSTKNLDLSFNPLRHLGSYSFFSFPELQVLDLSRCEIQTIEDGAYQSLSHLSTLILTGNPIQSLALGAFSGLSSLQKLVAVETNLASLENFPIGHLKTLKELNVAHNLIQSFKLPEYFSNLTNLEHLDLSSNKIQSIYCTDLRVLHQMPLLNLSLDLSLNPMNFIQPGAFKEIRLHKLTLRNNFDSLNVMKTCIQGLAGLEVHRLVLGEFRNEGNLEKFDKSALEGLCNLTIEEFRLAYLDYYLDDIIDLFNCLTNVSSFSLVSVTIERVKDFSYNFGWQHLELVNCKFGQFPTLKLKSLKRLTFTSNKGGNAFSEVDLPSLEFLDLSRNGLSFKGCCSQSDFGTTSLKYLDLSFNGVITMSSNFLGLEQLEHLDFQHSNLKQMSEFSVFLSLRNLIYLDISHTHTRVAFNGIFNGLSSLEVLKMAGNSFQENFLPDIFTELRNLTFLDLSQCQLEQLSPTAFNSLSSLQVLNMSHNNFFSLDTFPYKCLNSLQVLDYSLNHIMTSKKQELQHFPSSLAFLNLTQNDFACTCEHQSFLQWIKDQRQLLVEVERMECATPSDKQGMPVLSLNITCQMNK
Sequence (Q9Y6Y9 19-160, chain 2 of 2, further chain): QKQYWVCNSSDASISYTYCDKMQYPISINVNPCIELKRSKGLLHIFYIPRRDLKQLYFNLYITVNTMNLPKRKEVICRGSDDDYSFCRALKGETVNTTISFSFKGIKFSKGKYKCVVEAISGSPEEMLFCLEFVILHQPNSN

B1: Recombinant human calcium binding protein S100A9 (natural protein)
chain: MTCKMSQLERNIETIINTFHQYSVKLGHPDTLNQGEFKELVRKDLQNFLKKENKNEKVIEHIMEDLDTNADKQLSFEEFIMLMARLTWASHEKMHEGDEGPGHHHKPGLGEGTP
EC50 of TLR4 activation in HEK-Blue hTLR4 reporter cells (SEAP production), S100A9 0.5-50 nM, 24 h: 0.7 nM
